{"source": "the Human Domainome abundance scans (Beltran et al. 2025)", "parents": {"B1": {"name": "Endonuclease CUE2, residues 9 to 47; numbered along this chain, P36075 (parent)", "chain": "HESKLSILMDMFPAISKSKLQVHLLENNNDLDLTIGLLL"}}, "note": "± gives the uncertainty stated by the source."}
{"variants_of": "B1", "assay": "abundance fitness (aPCA) (normalised: wild type 0, dead -1); higher = more abundant; growth selection in yeast, the domain comes from the species named", "details": "Saccharomyces cerevisiae (strain ATCC 204508 / S288c)"}
{"variant": "HESKLSILMDMFPAISKSKLQVHLLENNNRLDLTIGLLL", "note": "[D30R]", "abundance fitness": "-0.246 ± 0.045"}
{"variant": "HESKLSILMDMFPAISKSKLQVHLLENNNKLDLTIGLLL", "note": "[D30K]", "abundance fitness": "-0.165 ± 0.11"}
{"variant": "HESKLSILMDMFPAISKSKLQVHLLENNNSLDLTIGLLL", "note": "[D30S]", "abundance fitness": "-0.223 ± 0.072"}
{"variant": "HESKLSILMDMFPAISKSKLQVHLLENNNGLDLTIGLLL", "note": "[D30G]", "abundance fitness": "-0.759 ± 0.067"}
{"variant": "HESKLSILMDMFPAISKSKLQVHLLENNNCLDLTIGLLL", "note": "[D30C]", "abundance fitness": "-0.261 ± 0.11"}
{"variant": "HESKLSILMDMFPAISKSKLQVHLLENNNMLDLTIGLLL", "note": "[D30M]", "abundance fitness": "0.097 ± 0.22"}
{"variant": "HESKLSILMDMFPAISKSKLQVHLLENNNHLDLTIGLLL", "note": "[D30H]", "abundance fitness": "-0.145 ± 0.2"}
{"variant": "HESKLSILMDMFPAISKSKLQVHLLENNNELDLTIGLLL", "note": "[D30E]", "abundance fitness": "-0.171 ± 0.042"}
{"variant": "HESKLSILMDMFPAISKSKLQVHLLENNNDLDLTICLLL", "note": "[G36C]", "abundance fitness": "-0.042 ± 0.055"}
{"variant": "HESKLSILMDMFPAISKSKLQVHLLENNNDLDLTIFLLL", "note": "[G36F]", "abundance fitness": "-0.14 ± 0.094"}
{"variant": "HESKLSILMDMFPAISKSKLQVHLLENNNDLDLTIKLLL", "note": "[G36K]", "abundance fitness": "0.076 ± 0.045"}
{"variant": "HESKLSILMDMFPAISKSKLQVHLLENNNDLDLTIDLLL", "note": "[G36D]", "abundance fitness": "0.058 ± 0.064"}
{"variant": "HESKLSILMDMFPAISKSKLQVHLLENNNDLDLTIALLL", "note": "[G36A]", "abundance fitness": "0.025 ± 0.036"}
{"variant": "HESKLSILMDMFPAISKSKLQVHLLENNNDLDLTILLLL", "note": "[G36L]", "abundance fitness": "-0.438 ± 0.074"}
{"variant": "HESKLSILMDMFPAISKSKLQVHLLENNNDLDLTIELLL", "note": "[G36E]", "abundance fitness": "0.067 ± 0.046"}
{"variant": "HESKLSILMDMFPAISKSKLQVHLLENNNDLDLTIMLLL", "note": "[G36M]", "abundance fitness": "-0.291 ± 0.18"}
{"variant": "HESKLSILMDMFPAISKSKLQVHLLENNNDLDLPIGLLL", "note": "[T34P]", "abundance fitness": "-0.943 ± 0.14"}
{"variant": "HESKLSILMDMFPAISKSKLQVHLLENNNDLDLLIGLLL", "note": "[T34L]", "abundance fitness": "-0.729 ± 0.059"}
{"variant": "HESKLSILMDMFPAISKSKLQVHLLENNNDLDLIIGLLL", "note": "[T34I]", "abundance fitness": "-0.447 ± 0.13"}
{"variant": "HESKLSILMDMFPAISKSKLQVHLLENNNDLDLWIGLLL", "note": "[T34W]", "abundance fitness": "-1.19 ± 0.18"}
{"variant": "HESKLSILMDMFPAISKSKLQVHLLENNNDLDLNIGLLL", "note": "[T34N]", "abundance fitness": "-0.296 ± 0.45"}
{"variant": "HESKLSILMDMFPAISKSKLQVHLLENNNDLDLVIGLLL", "note": "[T34V]", "abundance fitness": "0.008 ± 0.037"}
{"variant": "HESKLSILMDMFPAISKSKLQVHLLENNNDLDLKIGLLL", "note": "[T34K]", "abundance fitness": "-0.863 ± 0.37"}
{"variant": "HESKLSILMDMFPAISKSKLQVHLLENNNDLDLRIGLLL", "note": "[T34R]", "abundance fitness": "-0.993 ± 0.099"}
{"variant": "HESKLSILMDMFPAISKSKLQVHLLENNNDLDLSIGLLL", "note": "[T34S]", "abundance fitness": "-0.235 ± 0.045"}
{"variant": "HESKLSILMDMFPAISKSKLQVHLLENNNDLDLGIGLLL", "note": "[T34G]", "abundance fitness": "-0.632 ± 0.059"}
{"variant": "HESKLSILMDMFPAISKSKLQVHLLENNNDLDLAIGLLL", "note": "[T34A]", "abundance fitness": "-0.092 ± 0.036"}
{"variant": "HESKLSILMDMFPAISKSKLQVHLLENNNDLDLCIGLLL", "note": "[T34C]", "abundance fitness": "-0.091 ± 0.06"}
{"variant": "HESKLSILMDMFPAISKSKLQVHLLENNNDLDLEIGLLL", "note": "[T34E]", "abundance fitness": "-0.903 ± 0.11"}
{"variant": "HESKLSILMDMFPAISKSKLQVHLLENNNDLDLQIGLLL", "note": "[T34Q]", "abundance fitness": "-0.899 ± 0.12"}
{"variant": "HESKLSILMDMFPAISKSKLQVHLLENNNDLDLDIGLLL", "note": "[T34D]", "abundance fitness": "-0.88 ± 0.13"}
{"variant": "HESKLSILMDMFPAISKSKLQVHLLENDNDLDLTIGLLL", "note": "[N28D]", "abundance fitness": "0.022 ± 0.12"}
{"variant": "HESKLSILMDMFPAISKSKLQVHLLENKNDLDLTIGLLL", "note": "[N28K]", "abundance fitness": "0.104 ± 0.066"}
{"variant": "HESKLSILMDMFPAISKSKLQVHLLENTNDLDLTIGLLL", "note": "[N28T]", "abundance fitness": "-0.353 ± 0.078"}
{"variant": "HESKLSILMDMFPAISKSKLQVHLLENMNDLDLTIGLLL", "note": "[N28M]", "abundance fitness": "-0.045 ± 0.062"}
{"variant": "HESKLSILMDMFPAISKSKLQVHLLENANDLDLTIGLLL", "note": "[N28A]", "abundance fitness": "-0.024 ± 0.039"}
{"variant": "HESKLSILMDMFPAISKSKLQVHLLENCNDLDLTIGLLL", "note": "[N28C]", "abundance fitness": "-0.329 ± 0.15"}
{"variant": "HESKLSILMDMFPAISKSKLQVHLLENVNDLDLTIGLLL", "note": "[N28V]", "abundance fitness": "-0.469 ± 0.056"}
{"variant": "HESKLSILMDMFPAISKSKLQVHLLENHNDLDLTIGLLL", "note": "[N28H]", "abundance fitness": "-0.148 ± 0.18"}
{"variant": "HESKLSILMDMFPAISKSKLQVHLLENGNDLDLTIGLLL", "note": "[N28G]", "abundance fitness": "0.025 ± 0.031"}
{"variant": "HESKLSILMDMFPAISKSKLQVHLLENENDLDLTIGLLL", "note": "[N28E]", "abundance fitness": "0.018 ± 0.039"}
{"variant": "HESKLSILMDMFPAISKSKLQVHLLENQNDLDLTIGLLL", "note": "[N28Q]", "abundance fitness": "-0.053 ± 0.061"}
{"variant": "HESKLSILMDMFPAISKSKLQVHLLENSNDLDLTIGLLL", "note": "[N28S]", "abundance fitness": "0.035 ± 0.049"}
{"variant": "HESKLSILMDMFPAISKSKLQVHLLENWNDLDLTIGLLL", "note": "[N28W]", "abundance fitness": "-0.485 ± 0.092"}
{"variant": "HESKLSILMDMFPAISKSKLQVHLLENPNDLDLTIGLLL", "note": "[N28P]", "abundance fitness": "-0.68 ± 0.11"}
{"variant": "HESKLSILMDMFPAISKSKLQVHLLENRNDLDLTIGLLL", "note": "[N28R]", "abundance fitness": "-0.085 ± 0.034"}
{"variant": "HESKLSILMDMFPAISKSKLQVHLLENNNDLDRTIGLLL", "note": "[L33R]", "abundance fitness": "0.082 ± 0.032"}
{"variant": "HESKLSILMDMFPAISKSKLQVHLLENNNDLDKTIGLLL", "note": "[L33K]", "abundance fitness": "0.036 ± 0.061"}
{"variant": "HESKLSILMDMFPAISKSKLQVHLLENNNDLDETIGLLL", "note": "[L33E]", "abundance fitness": "0.06 ± 0.042"}
{"variant": "HESKLSILMDMFPAISKSKLQVHLLENNNDLDVTIGLLL", "note": "[L33V]", "abundance fitness": "0.03 ± 0.035"}
{"variant": "HESKLSILMDMFPAISKSKLQVHLLENNNDLDMTIGLLL", "note": "[L33M]", "abundance fitness": "-0.001 ± 0.046"}
{"variant": "HESKLSILMDMFPAISKSKLQVHLLENNNDLDITIGLLL", "note": "[L33I]", "abundance fitness": "-0.089 ± 0.062"}
{"variant": "HESKLSILMDMFPAISKSKLQVHLLENNNDLDGTIGLLL", "note": "[L33G]", "abundance fitness": "0.031 ± 0.032"}
{"variant": "HESKLSILMDMFPAISKSKLQVHLLENNNDLDCTIGLLL", "note": "[L33C]", "abundance fitness": "0.012 ± 0.053"}
{"variant": "HESKLSILMDMFPAISKSKLQVHLLENNNDLDQTIGLLL", "note": "[L33Q]", "abundance fitness": "-0.068 ± 0.062"}
{"variant": "HESKLSILMDMFPAISKSKLQVHLLENNNDLDFTIGLLL", "note": "[L33F]", "abundance fitness": "-0.258 ± 0.053"}
{"variant": "HESKLSILMDMFPAISKSKLQVHLLENNNDLDDTIGLLL", "note": "[L33D]", "abundance fitness": "0.031 ± 0.047"}
{"variant": "HESKLSILMDMFPAISKSKLQVHLLENNNDLDTTIGLLL", "note": "[L33T]", "abundance fitness": "-0.004 ± 0.051"}
{"variant": "HESKLSILMDMFPAISKSKLQVHLLENNNDLDYTIGLLL", "note": "[L33Y]", "abundance fitness": "-0.004 ± 0.047"}
{"variant": "HESKLSILMDMFPAISKSKLQVHLLENNNDLDHTIGLLL", "note": "[L33H]", "abundance fitness": "-0.456 ± 0.23"}
{"variant": "HESKLSILMDMFPAISKSKLQVHLLENNNDLDSTIGLLL", "note": "[L33S]", "abundance fitness": "-0.034 ± 0.045"}
{"variant": "HESKLSILMDMFPAISKSKLQVHLLENNNDLDNTIGLLL", "note": "[L33N]", "abundance fitness": "0.075 ± 0.057"}
{"variant": "HESKLSILMDMFPAISKSKLQVHLLENNNDLDPTIGLLL", "note": "[L33P]", "abundance fitness": "-0.008 ± 0.05"}
{"variant": "HESKLSILMDMFPAISKSKLQVHLLENNNDLDWTIGLLL", "note": "[L33W]", "abundance fitness": "-0.4 ± 0.051"}
